Experimental findings from ChEMBL document CHEMBL2073772, “Primary active transport of organic anions on bile canalicular membrane in humans” (Am J Physiol, 1999) are described below.

Data set [1] deals with ATP-binding cassette sub-family C member 2 (Homo sapiens, UniProt Q92887). Put plainly: (§1) TP_TRANSPORTER: uptake in bile canalicular membrane vesicles. It is filed as functional, cell membranes, Bile canalicular membrane vesicle.
Substrate in data set [2]: N[C@@H](CCC(=O)N[C@H](CSc1ccc([N+](=O)[O-])cc1[N+](=O)[O-])C(=O)NCC(=O)O)C(=O)O
The description is as §1. It is filed as functional, cell membranes, Homo sapiens, Bile canalicular membrane vesicle.

Substrate in data set [3]: CNc1nc2c(Cc3cccnc3)c(C)c(O[C@@H]3O[C@H](C(=O)O)[C@@H](O)[C@H](O)[C@H]3O)c(C)c2s1
The data set is described as §1. It is filed as functional, cell membranes, Homo sapiens, Bile canalicular membrane vesicle.

`Cc1c(F)c(N2CCNC(C)C2)cc2c1c(=O)c(C(=O)O[C@@H]1O[C@H](C(=O)O)[C@@H](O)[C@H](O)[C@H]1O)cn2C1CC1` (stereo partly drawn) [GREPAFLOXACIN GLUCURONIDE]: the Activity result in data set [1] is “substrate [+]”.

B1: ATP-binding cassette sub-family C member 2 (Homo sapiens) (protein)
chain: MLEKFCNSTFWNSSFLDSPEADLPLCFEQTVLVWIPLGYLWLLAPWQLLHVYKSRTKRSSTTKLYLAKQVFVGFLLILAAIELALVLTEDSGQATVPAVRYTNPSLYLGTWLLVLLIQYSRQWCVQKNSWFLSLFWILSILCGTFQFQTLIRTLLQGDNSNLAYSCLFFISYGFQILILIFSAFSENNESSNNPSSIASFLSSITYSWYDSIILKGYKRPLTLEDVWEVDEEMKTKTLVSKFETHMKRELQKARRALQRRQEKSSQQNSGARLPGLNKNQSQSQDALVLEDVEKKKKKSGTKKDVPKSWLMKALFKTFYMVLLKSFLLKLVNDIFTFVSPQLLKLLISFASDRDTYLWIGYLCAILLFTAALIQSFCLQCYFQLCFKLGVKVRTAIMASVYKKALTLSNLARKEYTVGETVNLMSVDAQKLMDVTNFMHMLWSSVLQIVLSIFFLWRELGPSVLAGVGVMVLVIPINAILSTKSKTIQVKNMKNKDKRLKIMNEILSGIKILKYFAWEPSFRDQVQNLRKKELKNLLAFSQLQCVVIFVFQLTPVLVSVVTFSVYVLVDSNNILDAQKAFTSITLFNILRFPLSMLPMMISSMLQASVSTERLEKYLGGDDLDTSAIRHDCNFDKAMQFSEASFTWEHDSEATVRDVNLDIMAGQLVAVIGPVGSGKSSLISAMLGEMENVHGHITIKGTTAYVPQQSWIQNGTIKDNILFGTEFNEKRYQQVLEACALLPDLEMLPGGDLAEIGEKGINLSGGQKQRISLARATYQNLDIYLLDDPLSAVDAHVGKHIFNKVLGPNGLLKGKTRLLVTHSMHFLPQVDEIVVLGNGTIVEKGSYSALLAKKGEFAKNLKTFLRHTGPEEEATVHDGSEEEDDDYGLISSVEEIPEDAASITMRRENSFRRTLSRSSRSNGRHLKSLRNSLKTRNVNSLKEDEELVKGQKLIKKEFIETGKVKFSIYLEYLQAIGLFSIFFIILAFVMNSVAFIGSNLWLSAWTSDSKIFNSTDYPASQRDMRVGVYGALGLAQGIFVFIAHFWSAFGFVHASNILHKQLLNNILRAPMRFFDTTPTGRIVNRFAGDISTVDDTLPQSLRSWITCFLGIISTLVMICMATPVFTIIVIPLGIIYVSVQMFYVSTSRQLRRLDSVTRSPIYSHFSETVSGLPVIRAFEHQQRFLKHNEVRIDTNQKCVFSWITSNRWLAIRLELVGNLTVFFSALMMVIYRDTLSGDTVGFVLSNALNITQTLNWLVRMTSEIETNIVAVERITEYTKVENEAPWVTDKRPPPDWPSKGKIQFNNYQVRYRPELDLVLRGITCDIGSMEKIGVVGRTGAGKSSLTNCLFRILEAAGGQIIIDGVDIASIGLHDLREKLTIIPQDPILFSGSLRMNLDPFNNYSDEEIWKALELAHLKSFVASLQLGLSHEVTEAGGNLSIGQRQLLCLGRALLRKSKILVLDEATAAVDLETDNLIQTTIQNEFAHCTVITIAHRLHTIMDSDKVMVLDNGKIIECGSPEELLQIPGPFYFMAKEAGIENVNSTKF
As to B1, the results for the Km in data set [2] and in data set [3] were 193 µM and 14.1 µM, respectively.
